Laboratory results reported in publication PMC3673994 (PLoS ONE, 2013).

Biological target: T1, human mtRNase P (TRMT10C-SDR5C1 and PRORP) (Homo sapiens, UniProt Q7L0Y3+Q99714)
T1 construct: made in house; host or cells: E. coli
T1 sequence (Q99714 1-261): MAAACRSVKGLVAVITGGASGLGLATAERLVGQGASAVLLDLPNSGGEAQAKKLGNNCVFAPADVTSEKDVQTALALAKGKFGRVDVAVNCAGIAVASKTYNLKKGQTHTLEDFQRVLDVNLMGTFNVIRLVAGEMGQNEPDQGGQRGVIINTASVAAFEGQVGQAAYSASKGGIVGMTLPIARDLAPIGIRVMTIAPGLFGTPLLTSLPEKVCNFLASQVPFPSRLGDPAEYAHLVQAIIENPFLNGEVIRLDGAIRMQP
T1 sequence (Q7L0Y3 40-403 partner): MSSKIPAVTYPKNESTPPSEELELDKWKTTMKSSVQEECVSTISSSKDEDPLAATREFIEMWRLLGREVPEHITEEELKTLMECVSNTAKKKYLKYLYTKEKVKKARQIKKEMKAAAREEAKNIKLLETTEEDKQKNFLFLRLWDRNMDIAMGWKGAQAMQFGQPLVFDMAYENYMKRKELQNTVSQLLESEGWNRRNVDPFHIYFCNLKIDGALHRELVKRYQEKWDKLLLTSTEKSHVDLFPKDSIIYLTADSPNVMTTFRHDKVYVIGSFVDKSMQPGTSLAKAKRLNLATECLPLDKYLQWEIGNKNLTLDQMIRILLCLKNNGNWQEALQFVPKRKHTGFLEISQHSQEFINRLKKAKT
Assay: RNase P assay, (mt)tRNA^His precursor cleavage
Type: biochemical
Settings: freshly dissolved fragments, up to 10 µM; three independent experiments
From the text: Samples for analysis were withdrawn at defined intervals or at known linear-range time-points and phosphor imaging data quantitatively analyzed with ImageQuant TL 7 (GE Healthcare).

Row | Substance | effect on tRNA 5′-end processing by mtRNase P
1 | Aβ1–28: synthetic Aβ peptide fragment, amino acids 1–28 (rPeptide) | none of the two affected
2 | Aβ25–35: synthetic Aβ peptide fragment corresponding to amino acids 25–35 (rPeptide) (GSNKGAIIGLM; Amyloid-beta protein 40; UniProt P05067 696-706, looked up, fragment) | none of the two affected
